Laboratory results taken from patent US20190292245A1 (published 2019).

Key:
tauΔ2-18 [1] = molecular target: T1, tauΔ2-18 (UniProt P10636-8 1-441); assay: blot
T1 construct: Deletion of residues 2-18; also called tau that lacks 2-18 domain; recombinant tauΔ2-18

tauΔ2-18 [2] = molecular target: T1, tauΔ2-18; assay: Western blot

T1 sequence (P10636 other isoform, or with tags, fused parts or gaps mutant limits assumed): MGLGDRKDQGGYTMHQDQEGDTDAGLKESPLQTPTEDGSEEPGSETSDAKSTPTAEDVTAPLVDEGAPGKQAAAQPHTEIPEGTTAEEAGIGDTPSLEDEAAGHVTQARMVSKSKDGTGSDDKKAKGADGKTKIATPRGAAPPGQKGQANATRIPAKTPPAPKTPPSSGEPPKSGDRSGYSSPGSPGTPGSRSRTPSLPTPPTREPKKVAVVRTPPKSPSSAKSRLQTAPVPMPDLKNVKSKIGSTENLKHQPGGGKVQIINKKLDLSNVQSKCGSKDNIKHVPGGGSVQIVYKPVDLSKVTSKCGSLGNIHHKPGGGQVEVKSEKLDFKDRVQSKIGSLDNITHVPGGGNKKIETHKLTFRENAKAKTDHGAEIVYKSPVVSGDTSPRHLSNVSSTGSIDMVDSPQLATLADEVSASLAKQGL

B1: Armanezumab (antibody, V domains shown)
VH: QVQLVQSGAEVKKPGASVKVSCKASGYTFTNHWMHWVRQAPGQGLEWMGAIDPGNSDTSYNQKFKGRVTMTRDTSTSTVYMELSSLRSEDTAVYYCARRDFFGGEYAVDYWGQGTLVTVSS
VL: DIVMTQSPLSLPVTPGEPASISCRSSQSLVHSNGNTYLHWYLQKPGQSPQLLIYKVSNRFSGVPDRFSGSGSGTDFTLKISRVEAEDVGVYYCSQSTHVPWTFGQGTKVEIKR
notes: Fully humanized IgG derived from 1C9; also called humanized 1C9
Does B1 bind (tauΔ2-18 [1])?
Result: no binding

B2: mouse monoclonal antibody 1C9 (antibody, V domains shown)
VH: EVQLQQSGTVLARPGASVKMSCKTSGYTFTNHWMHWVKQRPGQGLEWIGAIDPGNSDTSYNQKFKGQAKLTAVTSASTAFMELSSLTNEDSAVYYCTRRDFFGGEYAVDYWGQGTSVTVSS
VL: DVVMTQTPLSLPVSLGDQASISCRSSQSLVHSNGNTYLHWYLQKPGQSPKLLIYKVSNRFSGVPDRFSGSGSGTDFTLKISRVEAEDLGVYFCSQSTHVPWTFGGGTKLEIK
notes: also called 1C9 mAb; 1C9 moAb
Does B2 bind (tauΔ2-18 [2])?
Result: no binding
